PMC3235116
“And” between values parts separate entries of the source, which are not always exact repeats. Equal entries are not always repeated.

Tests used:
P69949 [1] = experiment: AUC; each his-tagged enolase alone in SPR binding buffer (no Mg2+, with EDTA, pH 7.4); octamer to monomers
P69949 [2] = experiment: AUC; F137L/E363G enolase incubated at pH 4.5 for one hour and dialysed overnight against SPR binding buffer; soluble fraction; octamer to monomers
[3] = target: Streptococcus pyogenes enolase F137L/E363G with an N-terminal hexa-histidine tag (Streptococcus pyogenes) (UniProt P69949); experiment: AUC; sedimentation velocity of each purified enolase alone, native (data not shown); octamer
[4] = target: Streptococcus pyogenes enolase F137L/E363G with an N-terminal hexa-histidine tag (Streptococcus pyogenes) (UniProt P69949); experiment: AUC; each his-tagged enolase alone in SPR binding buffer (no Mg2+, with EDTA, pH 7.4); octamer to monomers
[5] = target: canine plasminogen (canine); experiment: SPR; dPgn amine-coupled at pH 4.5 to CM4 chip (340 RU); titration with F137L/E363G Str enolase 0-500 nM (2-fold series), 25°C
[6] = target: canine plasminogen (canine); experiment: ITC; Str enolase brought to pH 9 (precipitated), dialysed back to pH 6.9, 30% activity left; enolase titrated into dPgn, close to 20°C
[7] = target: Streptococcus pyogenes enolase F137L/E363G with an N-terminal hexa-histidine tag (Streptococcus pyogenes) (UniProt P69949); experiment: AUC; F137L/E363G enolase incubated at pH 4.5 for one hour and dialysed overnight against SPR binding buffer; soluble fraction; octamer to monomers
[8] = target: fluorescently labeled, catalytically inactive derivative of human plasminogen (5'IAF-Pg S741C) (human); experiment: fluorescence polarisation; Str enolase first brought to pH 4.5, then diluted into phosphate buffer pH 6.7 (non-native enolase); labelled hPgn 140 nM, Str enolase 0.057 mM, 20°C
[9] = target: canine plasminogen (canine); experiment: co-sedimentation; dPgn made to precipitate with reductant (0.2 M DTT) in the presence of native soluble Str enolase; centrifuged, pellets and supernates on SDS-PAGE; initial dPgn:enolase monomer 1:1 or 1:3
[10] = target: Streptococcus pyogenes enolase F137L/E363G with an N-terminal hexa-histidine tag (Streptococcus pyogenes) (UniProt P69949); experiment: SPR; N-terminal His6 F137L/E363G Str enolase captured at neutral pH on Ni-NTA chip (~150 RU); single-cycle titration 15-2000 nM
[11] = target: Streptococcus pyogenes enolase F137L/E363G with an N-terminal hexa-histidine tag (Streptococcus pyogenes) (UniProt P69949); experiment: ITC; Str enolase brought to pH 4.5 (precipitated), dialysed to pH 6.9, dissolved in 27% urea, dialysed again at pH 6.9, about 30% specific activity left; enolase titrated with dPgn, close to 20°C
[12] = target: Streptococcus pyogenes enolase F137L/E363G with an N-terminal hexa-histidine tag (Streptococcus pyogenes) (UniProt P69949); experiment: co-sedimentation; Str enolase (300 nM) adsorbed to azolectin (phosphatidyl choline) micelles, dPgn 1000 nM, 10 mM potassium phosphate, 100 mM NaCl, 4°C three days, 20 000 rpm 2 h, SDS-PAGE of pellets and supernates
[13] = target: wild type Streptococcus pyogenes enolase with a C-terminal deca-histidine tag (Streptococcus pyogenes) (UniProt P69949); experiment: AUC; sedimentation velocity of each purified enolase alone, native (data not shown); octamer
[14] = target: wild type Streptococcus pyogenes enolase with a C-terminal deca-histidine tag (Streptococcus pyogenes) (UniProt P69949); experiment: AUC; each his-tagged enolase alone in SPR binding buffer (no Mg2+, with EDTA, pH 7.4); octamer to monomers
[15] = target: wild type Streptococcus pyogenes enolase with an N-terminal hexa-histidine tag (Streptococcus pyogenes) (UniProt P69949); experiment: AUC; sedimentation velocity of each purified enolase alone, native (data not shown); octamer
[16] = target: wild type Streptococcus pyogenes enolase with an N-terminal hexa-histidine tag (Streptococcus pyogenes) (UniProt P69949); experiment: AUC; each his-tagged enolase alone in SPR binding buffer (no Mg2+, with EDTA, pH 7.4); octamer to monomers
[17] = target: wild type Streptococcus pyogenes enolase with no tag (Streptococcus pyogenes) (UniProt P69949); experiment: AUC; sedimentation velocity of each purified enolase alone, native (data not shown); octamer

## Streptococcus pyogenes enolase F137L/E363G with an N-terminal hexa-histidine tag
P69949 [1]
  % monomeric: 36%
P69949 [2]
  % monomeric: 75% was monomeric

## Streptococcus pyogenes enolase F137L/E363G with an N-terminal hexa-histidine tag (from UniProt P69949 1-435) (enzyme)
[3]
  % octameric: > 90%
  stoichiometry N: 8
[4]
  % octameric: 57%
[5]
  half saturation of all the association phases: 50 nM
[6]
  stoichiometry N (sites per enolase monomer): 0.18
[7]
  % octameric: 19%
[8]
  P (polarization): 0.43
[9]
  % of the precipitated protein that was Str enolase (initial ratio 1:1): 12%
  % of the precipitated protein that was Str enolase (initial ratio 1:3): 25%
  dPgn:enolase ratio in the pellet (initial ratio 1:1) (dPgn per enolase): 6
  dPgn:enolase ratio in the pellet (initial ratio 1:3) (dPgn per enolase): 3

## canine plasminogen (natural protein)
[10]
  stoichiometry N (dPgn per enolase monomer): 1
[11]
  stoichiometry N (dPgn per enolase monomer): 0.34
[12]
  amount of dPgn relative to Str enolase that co-sedimented (Str enolase per dPgn (as 1:x)): 1 and 1.2

## wild type Streptococcus pyogenes enolase with a C-terminal deca-histidine tag
P69949 [1]
  % monomeric: 18%

## wild type Streptococcus pyogenes enolase with a C-terminal deca-histidine tag (from UniProt P69949 1-435) (enzyme)
[13]
  % octameric: > 90%
  stoichiometry N: 8
[14]
  % octameric: 68%

## wild type Streptococcus pyogenes enolase with an N-terminal hexa-histidine tag
P69949 [1]
  % monomeric: 5%

## wild type Streptococcus pyogenes enolase with an N-terminal hexa-histidine tag (from UniProt P69949 1-435) (enzyme)
[15]
  % octameric: > 90%
  stoichiometry N: 8
[16]
  % octameric: 88%

## wild type Streptococcus pyogenes enolase with no tag (from UniProt P69949 1-435) (enzyme)
[17]
  % octameric: > 90%
  stoichiometry N: 8
